The record followed here is US20220177604A1.

The target in assay [1] is human IgE pre-bound on human basophils (human) (UniProt P01854). As to the kind of experiment: cell-based or functional assay.
Assay [2] addresses human immunoglobulin E (hIgE) (human) (UniProt P01854). Kind of assay: SPR competition, hIgE over hFcεRIα chip, pH 7.4.
Assay [3] shares this target. Kind of assay: SPR competition.
Assay [4] has the same target. Kind of assay: flow cytometry: inhibition of human IgE binding to hFcεRIα+ bone-marrow-derived mast cells, residual IgE staining (MFI); unit inferred, x axis in µg/ml.
For assay [5] the target is unchanged. Kind of assay: SPR competition, hIgE over hFcεRIα chip, pH 6 (text: pH 5.5).
For assay [6] the target is unchanged. As to the kind of experiment: SPR competition, hIgE over hFcεRIα chip, pH 5.5.
For assay [7] the target is unchanged. Kind of assay: competition ELISA, hIgE to coated hFcεRIα, pH 6. On the technique in general: An ELISA detects its analyte on a solid surface through an enzyme-linked reagent.
The target is the same in assay [8]. As to the kind of experiment: SPR competition, hIgE over hFcεRIα chip, pH 7.4. The source holds these as a separate data set.
Assay [9] shares this target. As to the kind of experiment: competition ELISA, hIgE to coated hFcεRIα, pH 7.4.
Assay [10] shares this target. As to the kind of experiment: SPR competition, hIgE + mAb over hFcεRIα chip, pH 6 (text: pH 5.5).
Assay [11] shares this target. Kind of assay: competition ELISA, biotin-hIgE to coated hFcεRIα, pH 6.
Assay [12] shares this target. Kind of assay: competition ELISA, biotin-hIgE to coated hFcεRIα, pH 7.4.
The target is the same in assay [13]. Kind of assay: competition ELISA.
The target is the same in assay [14]. Kind of assay: SPR competition, hIgE + mAb over hFcεRIα chip, pH 7.4.
Assay [15] shares this target. Kind of assay: flow cytometry: inhibition of human IgE binding to hFcεRIα+ bone-marrow-derived mast cells, residual IgE staining (MFI); table head on the sheet reads EC50, the text calls the values IC50; no unit in the table, x axis in µg/ml.

Sequence of human immunoglobulin E (hIgE) (human) (P01854 whole entry): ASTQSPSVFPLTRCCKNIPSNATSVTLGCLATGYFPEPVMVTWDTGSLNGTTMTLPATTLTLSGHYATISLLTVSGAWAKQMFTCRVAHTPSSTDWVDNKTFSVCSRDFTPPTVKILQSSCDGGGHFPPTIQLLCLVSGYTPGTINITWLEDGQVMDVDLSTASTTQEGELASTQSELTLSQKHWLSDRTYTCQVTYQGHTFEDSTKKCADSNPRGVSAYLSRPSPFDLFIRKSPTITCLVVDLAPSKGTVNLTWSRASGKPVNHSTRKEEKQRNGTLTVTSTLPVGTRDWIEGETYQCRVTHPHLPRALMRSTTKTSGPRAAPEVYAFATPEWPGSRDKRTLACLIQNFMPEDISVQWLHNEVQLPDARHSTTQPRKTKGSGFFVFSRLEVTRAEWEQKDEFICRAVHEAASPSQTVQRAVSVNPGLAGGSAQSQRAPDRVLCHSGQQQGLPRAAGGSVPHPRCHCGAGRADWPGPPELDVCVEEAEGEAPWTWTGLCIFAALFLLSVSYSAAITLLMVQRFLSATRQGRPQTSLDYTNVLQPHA
Sequence of human IgE pre-bound on human basophils (human) (P01854 whole entry, chain 1 of 2): as the sequence (P01854 whole entry) above
Sequence of human IgE pre-bound on human basophils (human) (P12319 26-257, chain 2 of 2, further chain): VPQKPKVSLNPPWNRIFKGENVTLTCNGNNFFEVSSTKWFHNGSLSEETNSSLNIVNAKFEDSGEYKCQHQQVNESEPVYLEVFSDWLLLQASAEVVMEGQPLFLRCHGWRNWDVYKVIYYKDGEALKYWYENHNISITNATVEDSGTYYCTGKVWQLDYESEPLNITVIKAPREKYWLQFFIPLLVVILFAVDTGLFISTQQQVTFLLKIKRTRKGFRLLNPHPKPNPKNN

B1: 18B9His-hIgG1-WT (antibody, V domains shown)
VH: QVQLVESGGGLVQPGGSLRLSCAASGFTFSSYVMSWVRQAPGKGLEWVSSIYSDGSHTYYADSVKGRFTISRDNAKNTLYLQMNSLKSEDTAVYYCAKNLEHYSGSYYYTDPRYDYWGQGTQVTVSS
VL: SSALTQPSALSVTLGQTAKITCQGGSLGSSYVHWYQQKPGQAPVLVIHDGDSRPSGIPERFSGSSSGGTATLTISGAQAEDEDDYYCQSADSSGNAVFGGGTHLTVL
One may read the IC50 as the concentration needed to halve the response being measured. As to B1, the % CD63+ basophils at 20 µg/mL in [1] stood at 12.6%. In addition, the % CD63+ basophils at 100 µg/mL in assay [1] amounted to 37%. Besides, the % of activated basophils (CCR3+CD63+) in assay [1] amounted to 32%. The molecule also yielded an SI (Stimulation Index) at 20 µg/mL in assay [1] of 5.48. For the same molecule, in assay [1], the SI (Stimulation Index) at 100 µg/mL turned out to be 16.1. Also, the IC50 is 2.7 µg/mL in [2]; 3.89 µg/mL in assay [4]; 58.5 µg/mL in assay [5]; 4.06 µg/mL in [6]; 3.02 µg/mL in assay [7]; 0.749 µg/mL in [8]. In [9], the IC50 was 0.19 µg/mL. Besides, the ratio between IC50 at pH5.5 and pH 7.4 in assay [3] amounted to 5.4.

B2: 13E4-hIgG1-WT (antibody, V domains shown)
VH: ELQLVESGGGLVQPGGSLRLSCAASGFTFSSYVMSWVRQAPGKGLEWVSSIYHDGSHTYYADFVKGRFTISRDNAKNTLYLQMNSLKSEDTAVYYCASGTSYSGSYYYTDPFFGSWGQGTQVTVSS
VL: HSAVTQPSALSVTLGQTAKITCQGGSLGSNYAYWYQQKPGQAPVLVIYDDDSRPSGIPERFSGSSSGGTATLTISGAQAEDEGDYYCQSADSNGNAVFGGGTHLTVL
Regarding B2, the % of activated basophils (CCR3+CD63+) in assay [1] was determined as 18%. In addition, the IC50 came out at 2.3 µg/mL in assay [2]; 1.54 nM in [10]; 12.9 nM in assay [11]; 2.5 µg/mL in assay [5]; 10.3 nM in assay [12]; 1.62 nM in assay [14]. The IC50 in assay [7] amounted to 0.0114 µg/mL; in assay [15], 1.44 µg/mL; in assay [9], 0.00681 µg/mL. Moreover, the Ratio pH 6/7.4 (IC50) in assay [3] worked out at 1; in [13], 1.2.

B3: 13E4-hIgG1-ABDEG (antibody, V domains shown)
VH: ELQLVESGGGLVQPGGSLRLSCAASGFTFSSYVMSWVRQAPGKGLEWVSSIYHDGSHTYYADFVKGRFTISRDNAKNTLYLQMNSLKSEDTAVYYCASGTSYSGSYYYTDPFFGSWGQGTQVTVSS
VL: HSAVTQPSALSVTLGQTAKITCQGGSLGSNYAYWYQQKPGQAPVLVIYDDDSRPSGIPERFSGSSSGGTATLTISGAQAEDEGDYYCQSADSNGNAVFGGGTHLTVL
Regarding B3, the % CD63+ basophils at 20 µg/mL in [1] stood at 61.3%. The molecule also registered a % CD63+ basophils at 100 µg/mL in [1] of 68.6%. In [1], the % of activated basophils (CCR3+CD63+) amounted to 17%. Also, the IC50 came to 3 µg/mL in assay [2]; 3.2 µg/mL in assay [5]; 0.0106 µg/mL in assay [7]; 1.36 µg/mL in assay [15]; 0.0065 µg/mL in [9].

B4: 18B9His-hIgG1-ABDEG (antibody, V domains shown)
VH: QVQLVESGGGLVQPGGSLRLSCAASGFTFSSYVMSWVRQAPGKGLEWVSSIYSDGSHTYYADSVKGRFTISRDNAKNTLYLQMNSLKSEDTAVYYCAKNLEHYSGSYYYTDPRYDYWGQGTQVTVSS
VL: SSALTQPSALSVTLGQTAKITCQGGSLGSSYVHWYQQKPGQAPVLVIHDGDSRPSGIPERFSGSSSGGTATLTISGAQAEDEDDYYCQSADSSGNAVFGGGTHLTVL
In the case of B4, the % of activated basophils (CCR3+CD63+) in assay [1] is 29%. Besides, the half-inhibitory concentration (IC50) in [2] amounted to 2.9 µg/mL; in [4], 4.16 µg/mL; in [5], 52.9 µg/mL; in [7] it was 2.55 µg/mL; in assay [9], 0.13 µg/mL.

B5: 18E2VHHis-ABDEG (antibody, V domains shown)
VH: QLQLVESGGGLVQPGGSLRLSCAASGFTFSSYVMHWVRQAPGKGLEWVSSIYHDGSHTYYADFVKGRFTISRDNAKNTLYLQMNSLKSEDTAVYYCASGTSYSGSYYYTDPFFGSWGQGTQVTVSS
VL: NFMLTQPSALSVTLGQTARITCQGDRLGSRYIYWYQQKPPQAPVLVIHDDDRRPSGIPERFSGSSSGGTATLTISGAQAEDDGDYYCQSADSSGNPVFGGGTHLTVL
With B5, in [1], the % CD63+ basophils at 20 µg/mL was 3.5%, the % CD63+ basophils at 100 µg/mL turned out to be 4.8%, the SI (Stimulation Index) at 20 µg/mL came out at 1.4 and the SI (Stimulation Index) at 100 µg/mL was determined as 1.92.

B6: 18E2His2-hIgG1-WT (antibody, V domains shown)
VH: QLQLVESGGGLVQPGGSLRLSCAASGFTFSSYVMHWVRQAPGKGLEWVSSIYHDGSHTYYADFVKGRFTISRDNAKNTLYLQMNSLKSEDTAVYYCASGTSYSGSYYYTDPFFGSWGQGTQVTVSS
VL: NFMLTQPSALSVTLGQTARITCQGDRLGSRYIHWYQQKPPQAPVLVIHDDDRRPSGIPERFSGSSSGGTATLTISGAQAEDDGDYYCQSADSSGNPVFGGGTHLTVL
As to B6, in [1], the % of activated basophils (CCR3+CD63+) was determined as 5%. Further, the IC50 in assay [2] is 6 µg/mL; in assay [5], 6310 µg/mL; in assay [6] it was 9.86 µg/mL; in assay [7] it was 77.2 µg/mL; in [8], 1.56 µg/mL; in assay [15] it was 25.7 µg/mL. Moreover, the IC50 in assay [9] came out at 2.48 µg/mL. Besides, the fold reduction of affinity at pH 7.4 against the WT clone in assay [3] stood at 2.5 fold. Moreover, in [3], the ratio between IC50 at pH5.5 and pH 7.4 was found to be 6.3.

B7: 18E2His2-hIgG1-ABDEG (antibody, V domains shown)
VH: QLQLVESGGGLVQPGGSLRLSCAASGFTFSSYVMHWVRQAPGKGLEWVSSIYHDGSHTYYADFVKGRFTISRDNAKNTLYLQMNSLKSEDTAVYYCASGTSYSGSYYYTDPFFGSWGQGTQVTVSS
VL: NFMLTQPSALSVTLGQTARITCQGDRLGSRYIHWYQQKPPQAPVLVIHDDDRRPSGIPERFSGSSSGGTATLTISGAQAEDDGDYYCQSADSSGNPVFGGGTHLTVL
In assay [1], B7 returned a % CD63+ basophils at 20 µg/mL of 4%. This molecule showed a % CD63+ basophils at 100 µg/mL in assay [1] of 4.3%. This molecule gave a % of activated basophils (CCR3+CD63+) in assay [1] of 4%. In addition, the IC50 amounted to 5.8 µg/mL in assay [2]; 7320 µg/mL in assay [5]; 26.6 µg/mL in assay [7]; 208 µg/mL in assay [15]; 1.49 µg/mL in [9].
